This passage reports stoichiometry N results from publication PMC6397515.

Test [1] deals with full-length StHypT protein (HypT of Salmonella enterica serovar Typhimurium, WP_000383509) (Salmonella enterica serovar Typhimurium). Kind of test: SEC. Background: SEC sorts molecules by how far they enter the pores of the column.
The target is the same in test [2]. Kind of test: crystal structure.
The target in test [3] is HypT RD M206Q mutant protein (Salmonella enterica serovar Typhimurium). Kind of test: crystal structure.

A word on the stoichiometry N: it is the number of molecules, sites or subunits per partner or assembly.

For the substance “full-length StHypT protein (HypT of Salmonella enterica serovar Typhimurium, WP_000383509) (natural protein)”, the stoichiometry N in test [1] and in test [2] was 4 in each case.

For “HypT RD M206Q mutant protein (domain or fragment)”, the stoichiometry N in test [3] came out at 2.
